Laboratory results taken from publication PMC10687025, “Endosomal Arl4A attenuates EGFR degradation by binding to the ESCRT-II component VPS36” (Nature Communications, 2023).

Experiments:
Assay in all cases: pull-down; 2 μg GST fusion protein on glutathione beads with 2 μg His-tagged Arl4A in 1 ml binding buffer (20 mM Tris-HCl pH 8.0, 150 mM NaCl, 5 mM MgCl2, 1 mM EDTA, 1 mM DTT, 10% glycerol, 1% Triton X-100), 1 h at 4 °C; anti-His blot
Conditions in all cases: both partners purified
[1] = target: T1, His-tagged Arl4A WT (UniProt P40617 1-200)
T1 construct: Arl4A, wild type; also called His-Arl4A; source: recombinant, purified (Ni-NTA resin)
T1 sequence (looked up): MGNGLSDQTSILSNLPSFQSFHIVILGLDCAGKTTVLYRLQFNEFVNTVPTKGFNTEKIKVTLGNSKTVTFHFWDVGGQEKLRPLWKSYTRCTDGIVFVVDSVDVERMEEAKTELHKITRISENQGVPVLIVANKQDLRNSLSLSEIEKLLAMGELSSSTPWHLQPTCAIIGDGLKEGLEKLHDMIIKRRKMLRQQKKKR

[2] = target: T2, His-tagged Arl4A T51N (UniProt P40617 1-200, T51N)
T2 construct: Arl4A, mutant T51N; also called His-Arl4A T51N; source: recombinant, purified (Ni-NTA resin)
T2 sequence (looked up): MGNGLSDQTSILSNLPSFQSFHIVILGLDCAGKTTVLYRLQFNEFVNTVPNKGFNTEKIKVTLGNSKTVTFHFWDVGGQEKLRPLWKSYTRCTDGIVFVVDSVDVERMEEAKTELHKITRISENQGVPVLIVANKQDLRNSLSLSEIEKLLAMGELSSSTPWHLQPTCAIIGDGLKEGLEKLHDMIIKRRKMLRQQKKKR

[3] = target: T3, His-tagged Arl4A Q79L (UniProt P40617 1-200, Q79L)
T3 construct: Arl4A, mutant Q79L; source: recombinant, purified (Ni-NTA resin)
T3 sequence (looked up): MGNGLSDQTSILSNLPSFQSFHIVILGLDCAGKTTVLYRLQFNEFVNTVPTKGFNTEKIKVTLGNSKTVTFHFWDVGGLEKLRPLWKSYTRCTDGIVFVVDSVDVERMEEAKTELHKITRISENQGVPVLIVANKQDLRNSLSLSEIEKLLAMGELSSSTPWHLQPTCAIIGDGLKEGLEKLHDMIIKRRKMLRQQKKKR

Measured: binding result

B1: GST-VPS36 (201–386) (domain or fragment, UniProt Q86VN1 201-386, looked up)
chain: KIKDKQGDITEDETIRFKSYLLSMGIANPVTRETYGSGTQYHMQLAKQLAGILQVPLEERGGIMSLTEVYCLVNRARGMELLSPEDLVNACKMLEALKLPLRLRVFDSGVMVIELQSHKEEEMVASALETVSEKGSLTSEEFAKLVGMSVLLAKERLLLAEKMGHLCRDDSVEGLRFYPNLFMTQS
notes: source: E. coli BL21, purified on glutathione Sepharose 4B beads
binds: all assays above
